Where a chain is given by its changes, count along the chain named. Names and notes keep the numbering of the source.
B1: (A14E, A21G, A22(GQEP)19, A98K^, A99P, B25H, B29R, desB30 human insulin)/(227A, 234A, 235K, 297E, 315Q, 384Q, des447 hIgG4-Fc(228-447)) … (other)
chain 1: GIVEQCCTSICSLEQLENYCGGQEPGQEPGQEPGQEPGQEPGQEPGQEPGQEPGQEPGQEPGQEPGQEPGQEPGQEPGQEPGQEPGQEPGQEPGQEPKP
chain 2: FVNQHLCGSHLVEALYLVCGERGFHYTPR
chain 3: ASCPAPEAKGGPSVFLFPPKPKDTLMISRTPEVTCVVVDVSQEDPEVQFNWYVDGVEVHNAKTKPREEQFESTYRVVSVLTVLHQDWLQGKEYKCKVSNKGLPSSIEKTISKAKGQPREPQVYTLPPSQEEMTKNQVSLTCLVKGFYPSDIAVEWESQGQPENNYKTTPPVLDSDGSFFLYSRLTVDKSRWQEGNVFSCSVMHEALHNHYTQKSLSLSLG
modifications: Cys229 (EU numbering) sulphur bound to an acetyl arm of the linker; A98K N(eps) acylated by the trivalent linker 4-[bis[2-[(2-acetyl)amino]ethyl]amino]-4-oxo-butanoyl
notes: also called Ex 5.12
B2: A14E, A21G, A22(GQAPGQAPGQEP)6-GQAP, A98K^, A99P, B3Q, B25H, B29R, desB30 human insulin/(227A, 234A, 235K, 297E, 315Q, 384Q, des447 hIgG4-Fc(228-447)) … (other)
chain 1: GIVEQCCTSICSLEQLENYCGGQAPGQAPGQEPGQAPGQAPGQEPGQAPGQAPGQEPGQAPGQAPGQEPGQAPGQAPGQEPGQAPGQAPGQEPGQAPKP
chain 2: FVQQHLCGSHLVEALYLVCGERGFHYTPR
chain 3: B1 chain 3
modifications: Cys229 (EU numbering) sulphur bound to an acetyl arm of the linker; A98K N(eps) acylated by the trivalent linker 4-[bis[2-[(2-acetyl)amino]ethyl]amino]-4-oxo-butanoyl
notes: also called Ex 5.13
B3: A14E, A21G, A22(GQEP)12, A70K^, A71P, B25H, B29R, desB30 human insulin/(227A, 234A, 235K, 297E, 315Q, 384Q, des447 hIgG4-Fc(228-447)) … (other)
chain 1: GIVEQCCTSICSLEQLENYCGGQEPGQEPGQEPGQEPGQEPGQEPGQEPGQEPGQEPGQEPGQEPGQEPKP
chain 2: FVNQHLCGSHLVEALYLVCGERGFHYTPR
chain 3: B1 chain 3
modifications: Cys229 (EU numbering) sulphur bound to an acetyl arm of the linker; A70K N(eps) acylated by the trivalent linker 4-[bis[2-[(2-acetyl)amino]ethyl]amino]-4-oxo-butanoyl
notes: also called Ex 5.17
B4: (A14E, A21G, A22(GQAP)24, A118G, A119Q, A120A, A121K^, A122P, B29R, desB30 human insulin)/(227A, 234A, 235K, 297E, 315Q, 384Q, des447 hIgG4-Fc(228-447)) … (other)
chain 1: GIVEQCCTSICSLEQLENYCGGQAPGQAPGQAPGQAPGQAPGQAPGQAPGQAPGQAPGQAPGQAPGQAPGQAPGQAPGQAPGQAPGQAPGQAPGQAPGQAPGQAPGQAPGQAPGQAPGQAKP
chain 2: FVNQHLCGSHLVEALYLVCGERGFFYTPR
chain 3: B1 chain 3
modifications: Cys229 (EU numbering) sulphur bound to an acetyl arm of the linker; A121K N(eps) acylated by the trivalent linker 3,5-bis[(2-acetyl)amino]benzoyl
notes: also called Ex 5.29
B5: (A14A, A21G, A22(GQAP)18, A94G, A95Q, A96A, A97K^, A98P, B29R, desB30 human insulin)/(227A, 234A, 235K, 297E, 315Q, 384Q, des447 hIgG4-Fc(228-447)) … (other)
chain 1: GIVEQCCTSICSLAQLENYCGGQAPGQAPGQAPGQAPGQAPGQAPGQAPGQAPGQAPGQAPGQAPGQAPGQAPGQAPGQAPGQAPGQAPGQAPGQAKP
chain 2: FVNQHLCGSHLVEALYLVCGERGFFYTPR
chain 3: B1 chain 3
modifications: Cys229 (EU numbering) sulphur bound to an acetyl arm of the linker; A97K N(eps) acylated by the trivalent linker 4-[bis[2-[(2-acetyl)amino]ethyl]amino]-4-oxo-butanoyl
notes: also called Ex 5.25
B6: A14E, A21G, A22(GQAPGQAPGQEP)6-GQAP, A98K^, A99P, B3Q, B25H, B29R, desB30 human insulin/(227A, 234A, 235K, 297E, 315Q, 384Q, des447 hIgG4-Fc(228-447)) … (other)
chain 1: B2 chain 1
chain 2: FVQQHLCGSHLVEALYLVCGERGFHYTPR
chain 3: B1 chain 3
modifications: Cys229 (EU numbering) sulphur bound to an acetyl arm of the linker; A98K N(eps) acylated by the trivalent linker 4-[bis[2-[(2-acetyl)amino]ethyl]carbamoylamino]butanoyl
notes: also called Ex 5.24
B7: A14E, A21G, A22(GQAPGQAPGQEP)6-GQAP, A98K^, A99P, B29R, desB30 human insulin/(227A, 234A, 235K, 297E, 315Q, 384Q, des447 hIgG4-Fc(228-447)) … (other)
chain 1: B2 chain 1
chain 2: FVNQHLCGSHLVEALYLVCGERGFFYTPR
chain 3: B1 chain 3
modifications: Cys229 (EU numbering) sulphur bound to an acetyl arm of the linker; A98K N(eps) acylated by the trivalent linker 4-[bis[2-[(2-acetyl)amino]ethyl]amino]-4-oxo-butanoyl
B8: A14E, A21Q, A22(G)18, A40K^, B25H, B29R, desB30 human insulin/(227A, 234A, 235K hIgG4-Fc(228-447)) 4-[bis[2-[(2-acetyl)amino]ethyl]amino]-4-oxo-butanoyl … (other)
chain 1: GIVEQCCTSICSLEQLENYCQGGGGGGGGGGGGGGGGGGK
chain 2: FVNQHLCGSHLVEALYLVCGERGFHYTPR
chain 3: ASCPAPEAKGGPSVFLFPPKPKDTLMISRTPEVTCVVVDVSQEDPEVQFNWYVDGVEVHNAKTKPREEQFNSTYRVVSVLTVLHQDWLNGKEYKCKVSNKGLPSSIEKTISKAKGQPREPQVYTLPPSQEEMTKNQVSLTCLVKGFYPSDIAVEWESNGQPENNYKTTPPVLDSDGSFFLYSRLTVDKSRWQEGNVFSCSVMHEALHNHYTQKSLSLSLGK
modifications: Cys229 (EU numbering) sulphur bound to an acetyl arm of the linker; A40K N(eps) acylated by the trivalent linker 4-[bis[2-[(2-acetyl)amino]ethyl]amino]-4-oxo-butanoyl
notes: also called Ex 5.21
B9: A14E, A21G, A22(GQEP)3, A34G, A35Q, A36E, A37K^, A38P, B25H, B29R, desB30 human insulin/(227A, 234A, 235K hIgG4-Fc(228-447)) … (other)
chain 1: GIVEQCCTSICSLEQLENYCGGQEPGQEPGQEPGQEKP
chain 2: FVNQHLCGSHLVEALYLVCGERGFHYTPR
chain 3: B8 chain 3
modifications: Cys229 (EU numbering) sulphur bound to an acetyl arm of the linker; A37K N(eps) acylated by the trivalent linker 4-[bis[2-[(2-acetyl)amino]ethyl]amino]-4-oxo-butanoyl
notes: also called Ex 5.10
B10: A14E, A21G, A22(GQEP)19, A98K^, A99P, B3Q, B25H, B29R, desB30 human insulin/(227A, 234A, 235K hIgG4-Fc(228-447)) … (other)
chain 1: B1 chain 1
chain 2: FVQQHLCGSHLVEALYLVCGERGFHYTPR
chain 3: B8 chain 3
modifications: Cys229 (EU numbering) sulphur bound to an acetyl arm of the linker; A98K N(eps) acylated by the trivalent linker 4-[bis[2-[(2-acetyl)amino]ethyl]amino]-4-oxo-butanoyl
notes: also called Ex 5.6
B11: A14E, A21G, A22(GQAPGQEP)6, A70K^, A71P, B25H, B29R, desB30 human insulin/(227A, 234A, 235K hIgG4-Fc(228-447)) … (other)
chain 1: B3 chain 1 with E24A, E32A, E40A, E48A, E56A, E64A
chain 2: FVNQHLCGSHLVEALYLVCGERGFHYTPR
chain 3: B8 chain 3
modifications: Cys229 (EU numbering) sulphur bound to an acetyl arm of the linker; A70K N(eps) acylated by the trivalent linker 4-[bis[2-[(2-acetyl)amino]ethyl]amino]-4-oxo-butanoyl
notes: also called Ex 5.9

What was measured:
[1] = biological target: insulin receptor of isolated rat adipocytes (rat, UniProt P15127 27-1383); assay: cell-based or functional assay
insulin receptor of isolated rat adipocytes, sequence (P15127 27-1383): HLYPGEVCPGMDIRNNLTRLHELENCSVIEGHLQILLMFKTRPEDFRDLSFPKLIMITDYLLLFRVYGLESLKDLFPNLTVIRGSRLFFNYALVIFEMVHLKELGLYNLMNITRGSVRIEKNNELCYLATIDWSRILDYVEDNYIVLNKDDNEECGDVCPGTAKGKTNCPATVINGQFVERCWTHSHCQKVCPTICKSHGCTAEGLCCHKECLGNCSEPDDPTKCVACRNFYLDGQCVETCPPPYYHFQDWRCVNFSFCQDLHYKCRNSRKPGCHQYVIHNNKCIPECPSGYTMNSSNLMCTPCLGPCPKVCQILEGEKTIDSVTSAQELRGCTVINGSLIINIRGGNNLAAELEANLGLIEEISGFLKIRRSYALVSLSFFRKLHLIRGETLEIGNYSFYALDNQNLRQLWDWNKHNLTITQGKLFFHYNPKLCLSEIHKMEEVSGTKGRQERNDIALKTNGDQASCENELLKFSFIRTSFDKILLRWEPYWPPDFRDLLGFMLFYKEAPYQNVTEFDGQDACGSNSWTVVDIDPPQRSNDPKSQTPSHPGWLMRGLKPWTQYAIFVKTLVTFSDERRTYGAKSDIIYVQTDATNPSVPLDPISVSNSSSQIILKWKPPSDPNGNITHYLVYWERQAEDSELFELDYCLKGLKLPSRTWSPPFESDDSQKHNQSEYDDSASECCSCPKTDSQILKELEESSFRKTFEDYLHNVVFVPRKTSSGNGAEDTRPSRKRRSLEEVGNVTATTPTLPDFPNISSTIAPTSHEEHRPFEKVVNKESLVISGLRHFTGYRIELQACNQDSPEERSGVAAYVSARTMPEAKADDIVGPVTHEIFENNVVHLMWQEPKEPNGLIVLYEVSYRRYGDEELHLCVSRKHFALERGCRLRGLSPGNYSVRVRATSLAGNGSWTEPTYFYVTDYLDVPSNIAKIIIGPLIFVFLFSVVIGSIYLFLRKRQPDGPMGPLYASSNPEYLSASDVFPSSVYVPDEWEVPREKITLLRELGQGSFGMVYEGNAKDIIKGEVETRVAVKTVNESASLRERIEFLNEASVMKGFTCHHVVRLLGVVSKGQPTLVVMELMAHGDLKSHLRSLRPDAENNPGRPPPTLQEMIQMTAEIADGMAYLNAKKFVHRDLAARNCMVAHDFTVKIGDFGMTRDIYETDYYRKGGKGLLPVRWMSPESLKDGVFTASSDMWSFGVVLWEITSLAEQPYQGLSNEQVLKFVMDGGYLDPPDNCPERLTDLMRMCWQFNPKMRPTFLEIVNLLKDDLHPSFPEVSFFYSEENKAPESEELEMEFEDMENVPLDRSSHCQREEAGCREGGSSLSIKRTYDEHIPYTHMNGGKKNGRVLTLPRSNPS

insulin receptor A = insulin receptor A (UniProt P06213-2 28-1370, limits assumed); assay: insulin receptor binding assay as in Vienberg et al. 2011; relative to human insulin on insulin receptor A (100%)
insulin receptor A, sequence (P06213 other isoform, or with tags, fused parts or gaps limits assumed): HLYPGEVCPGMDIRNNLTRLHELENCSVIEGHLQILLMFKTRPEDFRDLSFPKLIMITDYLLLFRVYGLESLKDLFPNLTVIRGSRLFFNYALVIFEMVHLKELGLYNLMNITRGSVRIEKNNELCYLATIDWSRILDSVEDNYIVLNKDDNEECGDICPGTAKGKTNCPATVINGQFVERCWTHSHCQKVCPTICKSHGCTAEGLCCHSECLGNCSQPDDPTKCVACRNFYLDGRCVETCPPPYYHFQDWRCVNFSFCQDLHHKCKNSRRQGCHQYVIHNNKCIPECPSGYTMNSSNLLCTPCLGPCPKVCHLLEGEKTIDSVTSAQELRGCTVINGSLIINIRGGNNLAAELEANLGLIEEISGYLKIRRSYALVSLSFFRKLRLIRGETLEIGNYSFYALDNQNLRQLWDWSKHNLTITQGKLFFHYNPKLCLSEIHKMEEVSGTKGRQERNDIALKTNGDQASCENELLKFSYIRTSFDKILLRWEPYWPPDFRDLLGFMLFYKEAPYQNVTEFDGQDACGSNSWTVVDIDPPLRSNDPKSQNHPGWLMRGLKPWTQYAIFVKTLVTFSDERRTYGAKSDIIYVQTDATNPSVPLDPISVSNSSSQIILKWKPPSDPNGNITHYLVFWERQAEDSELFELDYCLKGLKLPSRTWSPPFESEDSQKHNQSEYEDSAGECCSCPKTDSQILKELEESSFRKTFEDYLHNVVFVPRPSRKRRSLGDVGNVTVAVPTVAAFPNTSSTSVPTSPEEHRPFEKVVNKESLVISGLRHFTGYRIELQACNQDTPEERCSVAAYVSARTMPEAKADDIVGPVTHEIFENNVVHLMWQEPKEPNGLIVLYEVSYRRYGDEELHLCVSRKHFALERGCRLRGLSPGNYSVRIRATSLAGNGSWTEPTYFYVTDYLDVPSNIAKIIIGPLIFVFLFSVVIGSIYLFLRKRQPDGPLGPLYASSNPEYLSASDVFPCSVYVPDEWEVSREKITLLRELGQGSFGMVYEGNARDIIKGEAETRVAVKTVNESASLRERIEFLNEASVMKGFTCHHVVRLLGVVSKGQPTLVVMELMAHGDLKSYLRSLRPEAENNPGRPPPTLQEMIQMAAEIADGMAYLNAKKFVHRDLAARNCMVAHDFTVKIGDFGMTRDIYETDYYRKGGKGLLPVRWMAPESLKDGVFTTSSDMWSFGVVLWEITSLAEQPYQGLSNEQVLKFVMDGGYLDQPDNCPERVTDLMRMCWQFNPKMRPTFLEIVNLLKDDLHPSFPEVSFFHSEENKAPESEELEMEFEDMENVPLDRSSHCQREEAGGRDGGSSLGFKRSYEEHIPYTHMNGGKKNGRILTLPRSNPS

Lipogenesis in rat adipocytes [Potency (%)] Mean Value [1]	Insulin receptor affinity [IC50 relative to HI (%)] (insulin receptor A) [%]	Binder
2.35 % of human insulin	1.85	B1
3.07 % of human insulin	5.55	B2
4.39 % of human insulin	3.98	B3
2.64 % of human insulin	3.06	B4
2.08 % of human insulin	4.49	B5
3.83 % of human insulin	4.6	B6
3.02 % of human insulin	4	B7
0.95 % of human insulin	2.1	B8
	2.47	B9
	5.07	B10
3.02 % of human insulin	2.96	B11
